Assays:
AncSZ = experiment: phosphorylation enrichment, bacterial display (enrichment ratio); higher = better substrate or ligand; peptides without Tyr show the background
EPHB1 = EPHB1 (UniProt P54762); experiment: as above
EPHB2 = EPHB2 (UniProt P29323); experiment: as above
FGFR1 = FGFR1 (UniProt P11362); experiment: as above
FGFR3 = FGFR3 (UniProt P22607); experiment: as above
Fer (mouse) = experiment: as above
Fes = Fes (UniProt P07332); experiment: as above
Fyn = Fyn (UniProt P06241); experiment: as above
Hck = Hck (UniProt P08631); experiment: as above
Jak2 = Jak2 (UniProt O60674); experiment: as above
MERTK = MERTK (UniProt Q12866); experiment: as above
c-Abl (mouse) = experiment: as above
c-Src = experiment: as above
Grb2 SH2 = Grb2 SH2 (UniProt P62993); experiment: SH2 binding enrichment of the phosphorylated peptide, bacterial display (enrichment ratio); higher = better substrate or ligand; peptides without Tyr show the background
SHP2-C SH2 = experiment: as above
c-Src SH2 = experiment: as above
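Throughout, for SH2 binding enrichment of the phosphorylated peptide, bacterial display: peptide library displayed on the E. coli surface as eCPX fusions, selected cells deep-sequenced, score is each peptide's frequency after selection divided by its frequency in the input.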
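Throughout, for phosphorylation enrichment, bacterial display: 11-residue human phosphosite peptides and single-mutation variants displayed on the E. coli surface, counted by deep sequencing, each peptide's frequency after selection divided by its frequency in the unselected input library; frequency after pTyr selection over input frequency; kinase dosed for 20-30% of maximal phosphorylation in three min.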

Sequence of Jak2 (O60674 whole entry, looked up): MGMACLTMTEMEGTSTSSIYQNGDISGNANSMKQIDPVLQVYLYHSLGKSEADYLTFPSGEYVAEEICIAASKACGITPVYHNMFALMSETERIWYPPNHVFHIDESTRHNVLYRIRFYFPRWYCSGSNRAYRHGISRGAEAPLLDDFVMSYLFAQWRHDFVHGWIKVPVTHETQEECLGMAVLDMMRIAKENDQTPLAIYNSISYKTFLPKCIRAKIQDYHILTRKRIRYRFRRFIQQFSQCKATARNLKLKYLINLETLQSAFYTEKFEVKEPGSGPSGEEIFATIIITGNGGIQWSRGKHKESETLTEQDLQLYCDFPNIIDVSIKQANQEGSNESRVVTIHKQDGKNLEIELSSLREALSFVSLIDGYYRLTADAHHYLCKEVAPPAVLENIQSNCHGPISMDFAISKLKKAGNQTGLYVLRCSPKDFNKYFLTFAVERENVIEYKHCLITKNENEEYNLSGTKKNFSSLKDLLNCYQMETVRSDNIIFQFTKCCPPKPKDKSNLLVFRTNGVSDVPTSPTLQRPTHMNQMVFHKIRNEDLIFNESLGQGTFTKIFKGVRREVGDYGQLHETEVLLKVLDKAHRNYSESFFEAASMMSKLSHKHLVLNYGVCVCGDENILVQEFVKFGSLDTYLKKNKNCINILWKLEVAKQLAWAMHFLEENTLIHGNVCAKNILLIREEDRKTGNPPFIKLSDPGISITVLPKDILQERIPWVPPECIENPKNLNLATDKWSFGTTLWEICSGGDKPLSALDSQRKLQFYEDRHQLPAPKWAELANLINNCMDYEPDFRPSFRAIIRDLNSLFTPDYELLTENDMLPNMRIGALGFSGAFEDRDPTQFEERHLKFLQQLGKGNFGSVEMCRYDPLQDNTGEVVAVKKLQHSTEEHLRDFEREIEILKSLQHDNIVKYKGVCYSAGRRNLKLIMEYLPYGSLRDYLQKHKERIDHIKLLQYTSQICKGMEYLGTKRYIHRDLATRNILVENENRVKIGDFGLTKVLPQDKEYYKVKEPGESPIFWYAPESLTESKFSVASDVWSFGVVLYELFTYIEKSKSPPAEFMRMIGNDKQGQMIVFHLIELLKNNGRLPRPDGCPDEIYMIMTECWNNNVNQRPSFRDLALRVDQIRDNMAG
Sequence of FGFR1 (P11362 whole entry, looked up): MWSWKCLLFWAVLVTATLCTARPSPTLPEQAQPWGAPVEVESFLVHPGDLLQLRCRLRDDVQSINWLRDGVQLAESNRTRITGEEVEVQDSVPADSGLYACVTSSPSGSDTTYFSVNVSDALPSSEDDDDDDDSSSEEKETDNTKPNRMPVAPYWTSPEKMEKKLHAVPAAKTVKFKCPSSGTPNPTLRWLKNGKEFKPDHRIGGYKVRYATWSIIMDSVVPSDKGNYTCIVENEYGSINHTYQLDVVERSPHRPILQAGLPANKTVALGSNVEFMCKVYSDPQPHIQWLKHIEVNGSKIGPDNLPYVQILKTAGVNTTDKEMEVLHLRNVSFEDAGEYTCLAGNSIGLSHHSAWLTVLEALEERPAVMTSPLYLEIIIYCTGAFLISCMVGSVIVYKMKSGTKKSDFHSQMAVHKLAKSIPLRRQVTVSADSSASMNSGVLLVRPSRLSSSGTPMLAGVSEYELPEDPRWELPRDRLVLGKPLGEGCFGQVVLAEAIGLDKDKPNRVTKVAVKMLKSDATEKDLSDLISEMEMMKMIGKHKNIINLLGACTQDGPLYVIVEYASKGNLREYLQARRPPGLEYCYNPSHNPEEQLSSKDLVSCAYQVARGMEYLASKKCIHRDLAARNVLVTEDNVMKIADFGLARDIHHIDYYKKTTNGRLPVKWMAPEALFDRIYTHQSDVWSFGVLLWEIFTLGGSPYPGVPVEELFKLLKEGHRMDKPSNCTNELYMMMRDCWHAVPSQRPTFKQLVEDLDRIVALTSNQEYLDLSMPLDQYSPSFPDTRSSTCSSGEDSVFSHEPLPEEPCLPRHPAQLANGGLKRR
Sequence of MERTK (Q12866 whole entry, looked up): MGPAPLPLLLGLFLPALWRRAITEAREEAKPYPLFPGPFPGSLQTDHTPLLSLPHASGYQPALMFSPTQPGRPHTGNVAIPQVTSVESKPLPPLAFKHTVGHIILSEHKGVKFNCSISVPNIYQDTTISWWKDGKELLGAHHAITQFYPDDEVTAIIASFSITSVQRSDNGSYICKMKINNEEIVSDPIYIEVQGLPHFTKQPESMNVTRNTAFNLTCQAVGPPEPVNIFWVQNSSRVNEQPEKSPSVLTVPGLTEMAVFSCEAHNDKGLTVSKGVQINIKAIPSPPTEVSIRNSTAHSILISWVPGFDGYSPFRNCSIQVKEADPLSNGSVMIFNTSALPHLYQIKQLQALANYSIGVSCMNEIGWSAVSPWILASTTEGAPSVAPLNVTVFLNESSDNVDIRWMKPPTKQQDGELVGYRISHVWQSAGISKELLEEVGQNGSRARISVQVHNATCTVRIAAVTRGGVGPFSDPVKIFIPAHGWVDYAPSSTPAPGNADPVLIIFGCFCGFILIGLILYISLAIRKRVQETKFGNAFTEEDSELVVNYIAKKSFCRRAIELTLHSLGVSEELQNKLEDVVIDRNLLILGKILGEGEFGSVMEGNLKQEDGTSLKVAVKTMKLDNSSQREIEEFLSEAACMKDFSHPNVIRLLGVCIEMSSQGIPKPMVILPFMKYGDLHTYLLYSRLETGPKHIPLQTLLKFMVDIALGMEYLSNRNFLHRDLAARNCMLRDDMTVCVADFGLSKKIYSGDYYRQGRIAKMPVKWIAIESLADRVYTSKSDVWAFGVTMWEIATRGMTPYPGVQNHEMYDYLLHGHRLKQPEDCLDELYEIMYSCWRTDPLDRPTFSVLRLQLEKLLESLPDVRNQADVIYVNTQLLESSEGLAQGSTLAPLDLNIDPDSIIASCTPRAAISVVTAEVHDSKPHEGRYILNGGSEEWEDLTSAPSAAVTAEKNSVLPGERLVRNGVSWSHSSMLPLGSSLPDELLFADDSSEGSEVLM
Sequence of Fes (P07332 whole entry, looked up): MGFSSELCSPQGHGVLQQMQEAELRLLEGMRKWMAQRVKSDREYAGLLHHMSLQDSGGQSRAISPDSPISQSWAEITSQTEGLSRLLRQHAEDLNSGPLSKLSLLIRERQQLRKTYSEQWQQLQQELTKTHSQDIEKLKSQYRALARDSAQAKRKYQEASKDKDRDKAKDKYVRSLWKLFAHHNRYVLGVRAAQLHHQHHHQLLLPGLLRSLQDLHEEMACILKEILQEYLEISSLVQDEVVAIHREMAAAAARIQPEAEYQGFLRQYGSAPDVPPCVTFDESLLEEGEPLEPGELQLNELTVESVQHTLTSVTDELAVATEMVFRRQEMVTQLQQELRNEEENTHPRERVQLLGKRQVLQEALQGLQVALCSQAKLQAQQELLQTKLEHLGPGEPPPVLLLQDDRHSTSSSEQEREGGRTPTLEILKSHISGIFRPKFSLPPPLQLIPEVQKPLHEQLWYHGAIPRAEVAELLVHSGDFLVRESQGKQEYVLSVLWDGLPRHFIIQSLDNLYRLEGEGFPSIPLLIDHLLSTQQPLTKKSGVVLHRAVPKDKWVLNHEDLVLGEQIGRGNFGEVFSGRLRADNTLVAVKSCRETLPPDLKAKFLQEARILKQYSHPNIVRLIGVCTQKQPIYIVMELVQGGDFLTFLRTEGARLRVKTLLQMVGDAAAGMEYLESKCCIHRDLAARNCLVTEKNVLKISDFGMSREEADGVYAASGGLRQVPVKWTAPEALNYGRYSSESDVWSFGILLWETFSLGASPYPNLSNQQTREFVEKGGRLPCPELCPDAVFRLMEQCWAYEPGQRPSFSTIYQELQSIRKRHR
Sequence of EPHB2 (P29323 whole entry, looked up): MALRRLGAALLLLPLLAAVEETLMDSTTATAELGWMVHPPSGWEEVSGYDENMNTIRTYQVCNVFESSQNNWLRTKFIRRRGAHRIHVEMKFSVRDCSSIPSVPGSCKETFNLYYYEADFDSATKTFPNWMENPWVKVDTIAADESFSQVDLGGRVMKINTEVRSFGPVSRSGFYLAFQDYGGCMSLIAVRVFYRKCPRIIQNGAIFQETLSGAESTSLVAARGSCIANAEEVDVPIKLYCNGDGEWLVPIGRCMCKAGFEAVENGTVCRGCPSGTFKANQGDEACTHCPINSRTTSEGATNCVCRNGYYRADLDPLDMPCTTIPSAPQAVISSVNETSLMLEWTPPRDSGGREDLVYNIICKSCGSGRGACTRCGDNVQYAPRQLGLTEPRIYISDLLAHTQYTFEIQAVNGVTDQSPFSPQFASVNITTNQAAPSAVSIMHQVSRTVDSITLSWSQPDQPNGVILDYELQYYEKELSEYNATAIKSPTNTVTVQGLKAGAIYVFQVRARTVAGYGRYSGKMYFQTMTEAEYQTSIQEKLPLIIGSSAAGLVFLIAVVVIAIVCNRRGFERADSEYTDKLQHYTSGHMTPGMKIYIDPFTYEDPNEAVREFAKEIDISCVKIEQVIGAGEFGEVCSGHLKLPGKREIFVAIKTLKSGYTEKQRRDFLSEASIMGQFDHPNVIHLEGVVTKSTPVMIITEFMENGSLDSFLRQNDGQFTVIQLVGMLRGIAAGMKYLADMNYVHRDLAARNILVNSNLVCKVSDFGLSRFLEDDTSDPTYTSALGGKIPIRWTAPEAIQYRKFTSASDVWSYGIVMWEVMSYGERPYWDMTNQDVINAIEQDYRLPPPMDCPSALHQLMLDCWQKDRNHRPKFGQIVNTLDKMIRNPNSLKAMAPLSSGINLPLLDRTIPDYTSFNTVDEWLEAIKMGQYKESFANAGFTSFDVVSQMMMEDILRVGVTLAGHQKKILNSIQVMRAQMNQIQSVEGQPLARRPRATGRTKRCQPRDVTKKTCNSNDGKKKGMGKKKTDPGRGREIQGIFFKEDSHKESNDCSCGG
Sequence of Grb2 SH2 (P62993 whole entry, looked up): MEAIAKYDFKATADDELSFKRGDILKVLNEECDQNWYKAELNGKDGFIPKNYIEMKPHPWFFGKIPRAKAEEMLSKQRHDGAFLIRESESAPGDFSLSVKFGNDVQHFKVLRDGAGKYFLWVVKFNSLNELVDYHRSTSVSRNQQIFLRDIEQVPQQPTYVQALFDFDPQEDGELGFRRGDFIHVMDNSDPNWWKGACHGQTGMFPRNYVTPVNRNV

Row | Sequence | phosphorylation enrichment (AncSZ) | phosphorylation enrichment (EPHB1) | phosphorylation enrichment (EPHB2) | phosphorylation enrichment (FGFR1) | phosphorylation enrichment (FGFR3) | phosphorylation enrichment (Fer (mouse)) | phosphorylation enrichment (Fes) | phosphorylation enrichment (Fyn) | phosphorylation enrichment (Hck) | phosphorylation enrichment (Jak2) | phosphorylation enrichment (MERTK) | phosphorylation enrichment (c-Abl (mouse)) | phosphorylation enrichment (c-Src) | SH2 binding enrichment (Grb2 SH2) | SH2 binding enrichment (SHP2-C SH2) | SH2 binding enrichment (c-Src SH2)
1 | MYRVQYNSSVD [LRFN1_Y458_Q455R] | 0.785 | 0.487 | 0.437 | 0.433 | 0.715 | 0.403 | 0.876 | 0.435 | 0.435 | 0.68 | 0.375 | 0.629 | 0.411 | 0.659 | 0.869 | 0.613
2 | NDFGNYNNQSS [HNRNPA1_Y318] | 0.523 | 0.392 | 0.352 | 0.417 | 0.419 | 0.322 | 0.695 | 0.333 | 0.417 | 0.49 | 0.285 | 0.874 | 0.343 | 0.826 | 0.68 | 0.537
3 | NEANKYQISVN [FGB_Y368] | 0.691 | 0.39 | 0.411 | 0.372 | 0.459 | 0.369 | 0.816 | 0.435 | 0.391 | 0.654 | 0.371 | 0.592 | 0.425 | 0.763 | 0.717 | 0.481
4 | NEKNIYGVPLM [BMPR2_Y247_R248G] | 0.616 | 0.431 | 1.7 | 0.511 | 0.624 | 3.26 | 0.717 | 4.93 | 6.04 | 0.627 | 2.83 | 19.6 | 3.45 | 0.808 | 0.785 | 0.478
5 | NESVDSRATFP [MET_Y1003_Y1003S] | 0.783 | 0.427 | 0.597 | 0.485 | 0.583 | 0.376 | 1.1 | 0.442 | 0.492 | 0.826 | 0.531 | 0.661 | 0.48 | 0.925 | 0.625 | 0.48
6 | NFPGGYSGSVK [MCPH1_Y606_L602F] | 0.354 | 0.357 | 0.379 | 0.486 | 0.47 | 0.368 | 0.547 | 0.44 | 0.406 | 0.539 | 0.365 | 0.529 | 0.451 | 0.802 | 0.667 | 0.59
7 | NFRTTYINANE [KCNH2_Y475_V476I] | 0.733 | 0.566 | 0.435 | 0.528 | 0.506 | 0.383 | 0.819 | 0.412 | 0.462 | 0.843 | 0.476 | 0.711 | 0.584 | 5.07 | 1.34 | 0.745
8 | NGRTGDVLQPE [PLCG2_Y1036_Y1036D] | 0.971 | 0.598 | 0.468 | 0.404 | 0.669 | 0.464 | 1.05 | 0.39 | 0.496 | 0.903 | 0.454 | 0.777 | 0.428 | 0.579 | 0.526 | 0.347

Source: the supplement of paper PMC10065799, “High-throughput profiling of sequence recognition by tyrosine kinases and SH2 domains using bacterial peptide display” (eLife, 2023)
